Experimental data published in patent publication US7871610B2, “Antibodies to Tie1 ectodomain” (Dyax Corp., priority 2003, dated 2011).

Key:
[1] = biological target: T1, recombinant human Tie1-Fc (Homo sapiens, UniProt P35590); test: BIAcore, coated E3 IgGs with recombinant human Tie-1 Fc; assay type: binding; conditions: IgG, human Tie1 Fc
T1 construct: selected against the Tie1 extracellular domain fused to human Fc or to a histidine purification tag
T1 sequence (P35590 22-759 limits assumed): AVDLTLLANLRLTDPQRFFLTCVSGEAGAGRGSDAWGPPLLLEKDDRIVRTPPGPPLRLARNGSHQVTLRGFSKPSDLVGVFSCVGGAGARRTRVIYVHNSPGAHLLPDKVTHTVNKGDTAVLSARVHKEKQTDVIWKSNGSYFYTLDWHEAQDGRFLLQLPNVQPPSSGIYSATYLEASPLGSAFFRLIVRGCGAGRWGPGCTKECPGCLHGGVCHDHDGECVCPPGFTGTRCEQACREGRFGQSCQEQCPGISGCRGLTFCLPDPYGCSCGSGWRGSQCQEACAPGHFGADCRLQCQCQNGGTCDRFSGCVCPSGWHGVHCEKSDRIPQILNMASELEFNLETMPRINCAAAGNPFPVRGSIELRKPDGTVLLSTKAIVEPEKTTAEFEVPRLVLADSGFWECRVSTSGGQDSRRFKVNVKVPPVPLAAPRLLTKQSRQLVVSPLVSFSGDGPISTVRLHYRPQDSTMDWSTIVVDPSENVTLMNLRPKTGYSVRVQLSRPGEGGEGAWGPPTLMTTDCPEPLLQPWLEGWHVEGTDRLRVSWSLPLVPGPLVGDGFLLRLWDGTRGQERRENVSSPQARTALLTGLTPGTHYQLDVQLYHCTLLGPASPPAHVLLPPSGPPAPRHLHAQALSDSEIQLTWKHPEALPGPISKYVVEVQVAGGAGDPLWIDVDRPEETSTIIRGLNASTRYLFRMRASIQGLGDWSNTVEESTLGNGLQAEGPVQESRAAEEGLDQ
Description: The germlined E3 IgG1 stock solution 0.63 mg/ml was diluted 1/50 in a buffer of pH4.5 and the parental E3 IgG1 stock solution 0.56 mg/ml (2143-001) was diluted 1/50 in a buffer of pH 4.5. The IgG were directly coated onto a CM5 chip. The surface of the chips was activated with a 7 minute pulse of 0.05M NHS/0.2M EDC and the IgG was flowed over until 780RU germlined E3-IgG and 728 non germlined E3 IgG was coated onto the surface. All flow cells were subsequently deactivated with a 7 minute pulse of 1M ethanolamine hydrochloride pH 8.5. All analysis was performed in HBS buffer. Purified recombinant human Tie-1 Fc was diluted 1/28.7 in HBS to obtain a 400 nM stock solution. Serial dilutions were made to obtain 200 nM, 100 nM, 50 nM and 25 nM Tie-1 Fc stocks. For analysis of the association phase samples were injected at 30 μl/min for 8.3 minutes using kinject program. This was followed by a 40 minutes dissociation phase. Any antigen remaining associated to the surface was stripped from the IgG surface at a flow of 50 μl/min with two injections of 10 mM glycine pH 1.5 for 30 secods. All samples were run and analyzed in duplicate
(§1) Sensorgrams were analyzed using the simultaneous ka/kd fitting program with 1:1 model in the BIAEVALUATION™ software 3.1.

Mouse Tie 1-Fc = biological target: T2, Mouse Tie 1-Fc (Mus musculus, UniProt Q06806); test: BIAcore, coated E3 IgGs with recombinant mouse Tie-1 Fc; assay type: binding; conditions: IgG, mouse Tie1-Fc
T2 sequence (Q06806 23-755 limits assumed): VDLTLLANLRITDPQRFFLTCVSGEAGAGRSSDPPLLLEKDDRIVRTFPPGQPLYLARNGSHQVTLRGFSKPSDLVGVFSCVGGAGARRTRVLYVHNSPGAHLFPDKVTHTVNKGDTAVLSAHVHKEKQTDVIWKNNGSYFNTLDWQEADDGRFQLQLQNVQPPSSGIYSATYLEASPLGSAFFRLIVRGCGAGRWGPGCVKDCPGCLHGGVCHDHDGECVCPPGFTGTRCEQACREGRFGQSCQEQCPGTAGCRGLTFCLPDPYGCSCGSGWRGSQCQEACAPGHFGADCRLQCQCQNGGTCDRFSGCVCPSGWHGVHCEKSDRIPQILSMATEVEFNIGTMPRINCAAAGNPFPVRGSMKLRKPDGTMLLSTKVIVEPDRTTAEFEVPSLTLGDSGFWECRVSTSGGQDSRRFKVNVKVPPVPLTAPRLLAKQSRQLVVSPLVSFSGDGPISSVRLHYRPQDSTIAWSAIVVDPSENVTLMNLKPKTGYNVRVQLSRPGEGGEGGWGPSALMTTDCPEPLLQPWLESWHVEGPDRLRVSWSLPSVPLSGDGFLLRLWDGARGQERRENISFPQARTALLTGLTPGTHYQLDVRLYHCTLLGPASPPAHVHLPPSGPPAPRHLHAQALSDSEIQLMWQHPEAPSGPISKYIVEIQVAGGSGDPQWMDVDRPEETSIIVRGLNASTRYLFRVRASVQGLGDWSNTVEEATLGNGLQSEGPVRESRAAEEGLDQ
Description: In order to evaluate if the binding behavior had been affected in any way by the conversion of the somatic mutations back to germline, the germlined antibody was produced and tested as a IgG. The germlined E3 was reformatted to an IgG as described. This was then used to transiently transfect HEK293T cells using established procedures. The IgG was purified from the culture supernatant using protein A column chromatography using established procedures and the subsequent IgG was then tested for binding activity using surface plasmon resonance (BIAcore). The germlined E3 IgG1 stock solution 0.63 mg/ml (2146-002) was diluted 1/50 in a buffer of pH 4.5 and the parental E3 IgG1 stock solution 0.56 mg/ml (2143-001) was diluted 1/50 in a buffer of pH 4.5. The IgG were directly coated via onto a CM5 chip. The surface of the chips was activated with a 7 minute pulse of 0.05M NHS/0.2M EDC and the IgG was flowed over until 780RU germlined E3-IgG and 728 non germlined E3 IgG was coated onto the surface. All flow cells were subsequently deactivated with a 7 minute pulse of 1M ethanolamine hydrochloride pH8.5. All analysis was performed in HBS buffer. […] All samples were run and analyzed in duplicate
as §1

B1: E3: human anti-Tie1 antibody from Fab phage library; HC SEQ ID NO:114, LC SEQ ID NO:116 (antibody, V domains shown)
VH: EVQLLESGGGLVQPGGSLRLSCAASGFTFSMYGMVWVRQAPGKGLEWVSVISPSGGNTGYADSVKGRFTISRDNSKNTLYLQVNSLRAEDTAVYYCARAPRGYSYGYYYWGQGTLVTVSSASTKGPSVFPLAPSSKSTSGG
VL: DIQMTQSPLSLSASVGDRVTITCRASQGIGHYLAWYQQKPGKVPKLLIYTASTLQSGVPSRFSGSGSGTDFTLTINSLQPEDVATYYCQQFNSYPHTFGQGTRLDIK
modifications: Synthetically generated peptide
In the case of B1, the “effect of germlining on binding activity” value [1] is reported as “minimal impact on the binding activity” and the “effect of germlining on binding activity” value (Mouse Tie 1-Fc) is reported as “minimal impact on the binding activity”.
